{
  "source": "patent US20220204577A1",
  "about": "“Synthetic Peptides With Affinity for the Interleukin-10 Receptor, Pharmaceutical Composition and Use Thereof as Immunomodulators for Treating Autoimmune, Inflammatory or Allergic Diseases” (Universidade Federal de Uberlândia, priority 2019, published 2022)",
  "test_system": "mouse basophilic leukemia cells transfected with the human FcεRI IgE receptor (hRBL)",
  "test": "IgE-mediated release of β-hexosaminidase (basophil degranulation) in hRBL cells",
  "type": "cell-based",
  "details": "rIL10 treatment; versus cells treated with Bet v1 alone; serum from seven birch pollen-allergic donors",
  "experimental": "The effect of Pep 1 on IgE-mediated release was studied using mouse basophilic leukemia cells transfected with the human FcεRI IgE receptor (hRBL). The hRBL cells were sensitized with serum from seven patients allergic to birch pollen. The cells were stimulated with the antigen and its interaction with immobilized IgEs resulting in the release of β-hexosaminidase.\nWhen cells were treated with a composition containing Pep 1 to 1 μM (FIG. 10A) or rIL10 (FIG. 10B), the amount of Bet v 1 required to induce the same amount of degranulation was higher than for cells treated with Bet v1 alone (P<0.05). Amount of rBet v 1 (ng/mL) required to induce half the release of β-hexosaminidase using serum from seven birch pollen-allergic donors after treatment with Pep 1 (A) (P<0.05) and rIL10 (B) * P<0.05.",
  "data": [
    {"molecule": "rIL10: recombinant IL-10, used as control (protein, UniProt P22301 19-178, looked up) Interleukin-10: SPGQGTQSENSCTHFPGNLPNMLRDLRDAFSRVKTFFQMKDQLDNLLLKESLLEDFKGYLGCQALSEMIQFYLEEVMPQAENQDPDIKAHVNSLGENLKTLRLRLRRCHRFLPCENKSKAVEQVKNAFNKLQEKGIYKAMSEFDIFINYIEAYMTMKIRN", "values": [
      {"measurement": "amount of Bet v 1 required to induce the same amount of degranulation", "value": "higher"}
    ]}
  ]
}
